Series [1] addresses T1, YbxF/OapC WT (Bacillus halodurans C-125) (UniProt Q9Z9M0).
T1 sequence: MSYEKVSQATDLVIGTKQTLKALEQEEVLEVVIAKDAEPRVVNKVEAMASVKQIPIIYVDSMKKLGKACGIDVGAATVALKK
Put plainly: filter binding. As to conditions: Filter binding: 20 mM Tris-HCl pH 7.5, 150 mM NaCl, 10 mM MgCl2, 1 mM TCEP, ~20 C, 15 min, ~10 pM RNA.

For series [2], the target named is T1, YbxF/OapC WT (Bacillus halodurans C-125). Put plainly: footprinting (in-line probing). As to conditions: Filter binding: 20 mM Tris-HCl pH 7.5, 150 mM NaCl, 10 mM MgCl2, 1 mM TCEP, ~20 C, 15 min, ~10 pM RNA.
Series [3] addresses T2, YbxF/OapC WT (Bacillus halodurans C-125, UniProt Q9Z9M0 1-82).
T2 sequence: T1 sequence
The series can be described thus: filter binding; Filter binding: 20 mM Tris-HCl pH 7.5, 150 mM NaCl, 10 mM MgCl2, 1 mM TCEP, ~20 C, 15 min, ~10 pM RNA. As to conditions: protein: recombinant, tags: N-terminal His6 + PreScission (3C) site, label: 5' 32P.

Series [4] deals with T2, YbxF/OapC WT. Put plainly: filter binding; no binding at 1 uM or higher protein; Filter binding: 20 mM Tris-HCl pH 7.5, 150 mM NaCl, 10 mM MgCl2, 1 mM TCEP, ~20 C, 15 min, ~10 pM RNA. As to conditions: protein: recombinant; tags: N-terminal His6 + PreScission (3C) site; label: 5' 32P; hairpin.

The values that follow come from article PMC9723947, “Ornate, large, extremophilic (OLE) RNA forms a kink turn necessary for OapC protein recognition and RNA function”.

As to “GGCAUUUAAAGAGGAUUACAGUGUGGACUAAGUGGUAAUCCAGUCUGGCGUUUGGUGACAGCGCCAAGUUCAACAUAAAGGGAAACCGCCAGCGCGGCGACGCACUGGUGUUGAAUUGGGAAAUCCUACUGGACCUAAGCCACAGAGUUUACUCUUUAAAUG [OLE449-608]”, in series [1], the binding entry was “no binding”.
Still for that read-out and setting: the result for “GGCCUUGAGUGGAGUAGAGGGGAUUAUGGGUUUUGAAGCAAUCCGCUGUCGGCCAACAGCCAUUGCCUCUCUAGUACCAUAUGAAAUCUGCUCUGCAAAAGAG [OLE293-394]” reads “no binding”.
On to “GGCACAUCGAUGAAGCUCCUUGUGAUGGCUUGAGGCGCCCAGCCUUGGGUCAUUGCUGGGAGAAAAGGUAGUAGGGCGAUCCACAAAGGCAUGUGGGCGAUGACCCUCCUACUGUGGAGGCCUUUUUCUCUGCUGCUUAUGUAUGGACAUAGGGCAAGAGCAAAGGGUAUGAACCUGCGAAGGCAAGCUAGGGAGCUUGUCAGCAGCGUAGCC [OLE78-290]”, for which the binding result in series [1] and in series [2] was “binds” throughout.
In the case of “GGCACAUCGAUGAAGCUCCUUGUGAUGGCUUGAGGCGCCCAGCCUUGGGUCAUUGCUGGGAGAAAAGGUAGUAGGGCGAUCCACAAAGGCAUGUGGGCGAUGACCCUCCUACUGUGGAGGCCUUUUUCUCUGCUGCUUAUGUAUGGACAUAGG [OLE78-230]”, in series [1], the binding entry was “binds more weakly”.
As for GGAUCGAUGAAGCUCCCGAAAGGGAGAAAAGGUA (structured_RNA) [OLE k-turn WT], in the series with YbxF/OapC WT [3] (hairpin with k-turn), the binding result is “binds”.
On to GGAUAGAUGAAGCUCCCGAAAGGGAGAAAAGGUA (structured_RNA) [OLE k-turn C85A], for which the binding result with YbxF/OapC WT [4] is on record as “no binding”.
As for GGACCGAUGAAGCUCCCGAAAGGGAGAAAAGGUA (structured_RNA) [OLE k-turn U84C], the binding result with YbxF/OapC WT [3] (hairpin with k-turn) is “binds”.

B1: OLE83-147 (structured_RNA)
RNA: GGAUCGAUGAAGCUCCUUGUGAUGGCUUGAGGCGCCCAGCCUUGGGUCAUUGCUGGGAGAAAAGGUA
In the case of B1, the binding result with YbxF/OapC WT [3] is reported as “binds”.
